Measurements from article PMC3353271.

Biological target: S. cerevisiae enolase (S. cerevisiae (endogenous in strain R11258)) (UniProt P00925)
Test: SEC

Substance: S. cerevisiae enolase (from UniProt P00925 1-437) (enzyme)
- stoichiometry N: 2
